For one substance, Km results are on record in PMC7194074, “A Trichome-Specific, Plastid-Localized Tanacetum cinerariifolium Nudix Protein Hydrolyzes the Natural Pyrethrin Pesticide Biosynthetic Intermediate trans-Chrysanthemyl Diphosphate” (Frontiers in Plant Science, 2020).

The subject of this series is CC(C)=C[C@@H]1[C@@H](COP(=O)(O)OP(=O)(O)O)C1(C)C. Nature of the series: purified protein. Conditions: 100 mM Tris pH 7.5, 5 mM MgCl2, CPP 0.1 to 5 μM, 5 min, 1 μM enzyme stated for the general reactions.

TcNudix1 (Tanacetum cinerariifolium): the Km (in general, the concentration of substrate that gives half-maximal velocity) amounted to 0.137 ± 0.05 µM.
